The values below come from a protein production outcome set (Wang et al. 2014).

A short description of the data set: label from the status in PepcDB records.
Take “MPNILYKIDNQYPYFTKNEKKIAQFILNYPHKVVNMTSQEIANQLETSSTSIIRLSKKVTPGGFNELKTRLSKFLPKEVTQYNVELVDNESTISLKNKLHSRSKAALSNANETINVAIIDEICDLIKNSETIFIYGYGASFVVATDLYQKLSRIGLNIQLVHETHIFTTMLATRNSNDCVIFISNNGTQSEMQSIAKVIADYHIPIATISSTSDNPVAKQSNIVLTYGQTDENEMRMGATTSLFAQMFTIDILYYRYIALNYQSSLDFITQSKIALDNYRKHLSNIDFKH”: the protein production entry is recorded as “failed”. As for “MPNKVKKRHLLDYSIFIPYLILSIVGLIMVYSSTSALQVMKGFSPTSFVINQVAFWVVGLVAMFFIYKMKTSVFQNRSFIMFAIAVITVMVLAVRIPGIGKEINGARGWIEIGGFSMQPAEYLKIMVVWYLSYILARRQKTINGGMDQFKQAAGRPLMLVFVLIALVAIQPDFGNAAILTLITIVMVLASGINYMYTYLVGGLGILGSITAIQLLIMSKGKIFPARYQYIYNRFAVFKNPFLDERNLGHQLANSYYAISNGGWFGKGLGNSVQKKGFLPEAHTDFIFAITLEELGIIGGLAILGLLMFMIARIILVGVRSKKPFNSLMCIGIGTMLLIQVFINVGGITGIIPLTGITFPFLSQGGNSLLIISIAVAFVLNISADETRQKLENEYYLSLEQNQ”, the entry is “failed”; as for “MPNNETEASMRNTLFPTLKWSLLVLMTSLLTACGFHLRGDYDIPQELSRMSLTSYDQYSTFTRMVHRQLRLNKIDLQAPAEDLPNLHLLSESTGERTLSLYQNTRAAEIELTFVASYRVTVPELGSRTFTTSVTRSYLDNPLTALAKSVERDMIEDEMRKLAASQIVRQMARLKADFARKTLDDESIEGKGITDYRVDTQEVANPVSTEGSSELEHHHHHH”, “not failed”; as for “MPNNHDVNPYGIAFVPAGLPAGSALQAGDVVVSNFNAASNKQGTGTTIVKLVTDGKPVTFFQGQNLGLTTALAVLKSGYVLVGNLPTTNGATITSTGSLLVITPQGKLLSELKDPTLLDGPWDMTVIIDNGQQVTAFVSNVLNGTVARIDLNIGPNGATLLQSSHLIASGYAHRPDPAALVVGPTGLAYDAAHDMLYVASTNDNKVFAIAGAAALAHDNGPGSVIYQDSNHLRGPLALALAPNGDLVTANGDAINPDPNQSSEIVEFTPDGRFVAQMQVDPAPGSAFGLAFGLSSSGQPQFAAVNDSTNTAIVWTLRPVGGN”, “failed”. As for “MPPKTPRKTAATAAAAAAEPPAPPPPPPPEEDPEQDSGPEDLPLVRLEFEETEEPDFTALCQKLKIPDHVRERAWLTWEKVSSVDGVLGGYIQKKKELWGICIFIAAVDLDEMSFTFTELQKNIEISVHKFFNLLKEIDTSTKVDNAMSRLLKKYDVLFALFSKLERTCELIYLTQPSSSISTEINSALVLKVSWITFLLAKGEVLQMEDDLVISFQLMLCVLDYFIKLSPPMLLKEPYKTAVIPINGSPRTPRRGQNRSARIAKQLENDTRIIEVLCKEHECNIDEVKNVYFKNFIPFMNSLGLVTSNGLPEVENLSKRYEEIYLKNKDLDARLFLDHDKTLQTDSIDSFETQRTPRKSNLDEEVNVIPPHTPVRTVMNTIQQLMMILNSASDQPSENLISYFNNCTVNPKESILKRVKDIGYIFKEKFAKAVGQGCVEIGSQRYKLGVRLYYRVMESMLKSEEERLSIQNFSKLLNDNIFHMSLLACALEVVMATYSRSTSQNLDSGTDLSFPWILNVLNLKAFDFYKVIESFIKAEGNLTREMIKHLERCEHRIMESLAWLSDSPLFDLIKQSKDREGPTDHLESACPLNLPLQNNHTAADMYLSPVRSPKKKGSTTRVNSTANAETQATSAFQTQKPLKSTSLSLFYKKVYRLAYLRLNTLCERLLSEHPELEHIIWTLFQHTLQNEYELMRDRHLDQIMMCSMYGICKVKNIDLKFKIIVTAYKDLPHAVQETFKRVLIKEEEYDSIIVFYNSVFMQRLKTNILQYASTRPPTLSPIPHIPRSPYKFPSSPLRIPGGNIYISPLKSPYKISEGLPTPTKMTPRSRILVSIGESFGTSEKFQKINQMVCNSDRVLKRSAEGSNPPKPLKKLRFDIEGSDEADGSKHLPGESKFQQKLAEMTSTRTRMQKQKMNDSMDTSNKEEK”, the entry is “failed”.

As for “MPPSTLGLTPPFDATLLTTRPPCSRRHISRSPGARRPSPGLLTCLQPNVCPRARSAFLAISNGSRQQSGPARADAFHPVSISPFYFYSDSYEDVFMPITTKLKAVSLGVSLALAGLLVGCNQNDSDPLVKDDAYYRGQAEAMVAKLTLGEKLDLLSGPGYGSANGAINVKQDVPGVAGYINGVLRSADGIDIPALKLADGPAGVRINANRDGDSASYYATAWPIGSLLASSWDVKLVKAVGEAMGDEVRQYGVDILLAPGMNIQRNPLNGRNFEYYSEDPLLTGKIGAAMVNGVESNGVGTTIKHYFGNNSETNRNQINDIGEPRTFREIYLRGFQIAVDEAQPWAVMTSYNKVNGTYVNERRDAVTDLLRGEWKFDGLVMSDWFAGDVANNAYKQVLAGQDLIEPGNVKEQLQQSIEHGDLDEAKVNEAAIHILTQVMKSPSYNQLAISNSPDLIAHAKLARQAGAESMVLLRNDAAALPLAASSTLASFGINQINTYKGGTGSGDVNAASTTTIAQGLAARFPVNEALQSYYRDFYENNKVYHEGQFGAKGYYTCAEAPISGDLAALIANAATTQQAAVISIGRQAGEGADRSSGKGDYLLGDDERALIDAVSSAFHAQGKKVVVVLNVNGVIDTAQWSDKVDGILLAYMAGQETGHAVADVLSGAVNPSGKLAQSFPHSYASVPSAGTFPGEDTDGDGEPDDLYYNEGIYVGYRYYSTFEQAVSYPFGFGLSYTSFSYTSPAIASNTLEGGSAGNLVLTATITNTGAVAGKEAAQVYVTAPEVKLKKPLIELKAFAKTAQLAPGASEQLSFTIPASILASFDEASNQWIVEPGRYSAYISPSSDVSASTPVSFTVSKEIVVSNTTPGALALPAGVDPASVTTITR”, the protein production result is reported as “failed”. As to “MPQAPTLQSFIAGRWFGQHPAQSLRSAIDGHEVARTHEEAPDFAEALAFGRHQGGKALLALDFQQRAQRLKALALYLSGRKEQLYALSHHSGATRADSWIDIEGGNSTLFSYAGLGARELPSGNLLHEGPAQSLSKLGSFAGSHILVPRGGVAVHINAFNFPIWGMLEKFAPCFLAGMPCIVKPASATSYLTEAAMRLMHESGLLPEGSLQLVIGATGDLLDRLQGQDLVTFTGSASTAGRLRANPNLIRHSVPFNAEADSLNCAILAPDVSPDDEEFELFIKEVAREMTVKAGQKCTAIRRAIIPAKQLDAVATRLRERLSKVVVGDPAVEGVRMGALASHEQQRDVAERLQSLLHSSDLLFGARDGFEPRGTNVSQGAFFAPTLLLARDPMAEGGAHDIEAFGPVSTLMAYDDLDQALELASRGKGSLVASLVTKSPAIAAQVIPRAAAWHGRLLVLDRECAGESTGHGSPLPQLKHGGPGRAGGGEELGGLRAVKHYLQRAAIQGSPSMLAAVTGEYVRGAKVLETEVHPFRRYFQDLRIGESLLTHRRTVTEADLVNFGCLSGDHFYMHFDEIAARESQFGKRIAHGYFVLSAAAGLFVSPGPGPVLANYGLDTLRFITPVGIGDTLQARLTCKRKIDQGKLSPQGTPQGVVAWDVEVSNQLGEVVASYDILTLVAKRTE”, the protein production result is “failed”. As for “MPQDPRHPEHQYLDLVKHILENGARRMDRTGTGTLSVFGATMRFSLEDNTFPLLTTRRVFYRGVVEELLFFLRGETDSKVLEKKGVRIWEKNGAKQFLQSVGIDREEGDLGPIYGFQWRHFGARYETSASSYEGKGVDQIASAIAAIRANPASRRIVVSAWNPTDLGSMALPPCHVLFQFNVTDGKLSCAMYQRSGDMGLGVPFNIASYSLLTILVAHLTGLQPGEFVHFLGDAHVYLDHVDSLRQQIQRPPRAFPKLFVSPKGPRTEPEHFQYEDFELVGYDPHPAIKMNMSA”, the entry is “not failed”. For “MPQFFKRTSKIQAIIALRSIAIAIQLLLILFVNLGLAYELPWTPLVSVISLEVLFTFGSYLYYSRNHLSEKKASQKAILVQICADIIFLSLLLFFSGGATNAFVSLLLIPIAIAAVTLTPLLLTVVAFLAIASYSILLWSLPMSVMHGNMQGHFIGMGINFLFSALVVAIVVGKMARSINQQELAIAAYRENLLKQEQVTSLGVASAQVTHQLATPIATVQLLADELSEDFPDNEIVLDMQSQLTRCRDSLSEFRAMVFDIKEQVIKAINCQDLFDEITDNVRVNNPEVSLQLQKNSDEHAKDVTIDADAALLPAILNLINNAIRASKANNSNALSLTCQTIENNWQFTIRDYGKGFTLKKLNELGVKPVNSDQGFGMAVFLSHASLERLGGKLALTNHQEGGALVTLSLPISSLTSGNDYA”, the protein production result is “failed”.

Turning to “MPQITIIVPVYNAERTLERCVRSIQAQTVVNWELLLIDDGSEDYSSKLCDEYAIQDSRIRVFHQVNGGASSARNVGLEYTKGEWVVFCDSDDWVDSNWLELFKNQIDNGTELIVQGFIPHGNLWQSRTGINFHGNVKTGILKLQEENILGFMCTKMYKREIIEQCGLRFDTELVLREDELFMLQYAEYISTIQCMEEGAYHYDMPDFSTKYGNIDLFNMFLKIYVVLKRIFSGEDNLLLQNYENDLTQSLFHSFVMRHDDRCKKLENYRKEVGKRVLGVKSLSQFSKYILAYVPSFQVAYLLLEAKAKIVKSMQLEHHHHHH”, the protein production entry is reported as “not failed”. As for “MPQPGLTTPDNDALPWQTTLLLALQHVLVVAATPITSVFLIAKALHFTDTVTASVLSATFLMCGLGAILQSLGVKGVGARLPFIMVPGGAPIAIFVAIALQTNIQTAIGAVILTSLFYFIALPIFRRCLHHFPPFIIGIMLLMVSINLIRLYGGLIIGQPGSADFAHPTSIILSLGTILITLIFALAFSGILRQLAVMFGLLAGTLLGMALGSTDFSGVSHGPLFSFPQLLPFGWPIFDLSASLPLLIYAVISMAEATGQTIATAEIVNSTQNVQQAIPRTIRGDAVMSLLGGIFGTSLIITSGENIGVVRTTNVKSRFVTAAAGGLLILIAIFAPLVRLATCLPGSVVCGTAVIVFSIIGVIGIDMIAREPLHTPGKTYALAMGLAMGMLPILVPGLYQNFPAGVQMVFGNGMAAGTLTAILVNSLFNWSEKRTQARVKS”, the protein production entry was “failed”. As for “MPQTKQPNFLFLMADQLTAFALRMYGNGVCRTPNLDRLAARSTRFANMYCNFPLCAPSRVAMLTGRLPSSVGVYDNASEFSAEVPTFLHHLALAGYSTILSGKMHFVGPEQHHGFQERLTTDIYPSDFGWTPDWREEIPIAPTGMNMRSVIEAGECRRSMQIDYDDDVVYRGVQKIYDLGRLHRDRPFFLAVSMTHPHNPYVSTREFLDLYRPEDIDMPAVPPIPFAQQDPHSQRLWYMFRQDEYDVSDAHVRAARHAYYAMVSYVDAQVGRMLDALQAMDLDESTVVVFTADHGDMLGERGLWYKWVHFDPAVRIPLLISAPGRTRPAVRHELASLVDIFPTMLELAGVSVPDDGASPPPDGRSLAQGLGVSQDEPTGVVYGEMNGEGAHAPCLAVRQGWWKLVVAEGDPPLLFNLQDDPHELRNLAGQPATRDIERQLTALVQARWDARRLHQDILHSQARRRLVQQSRLQGDFPAWDYQPFTDASRQYVRAGAQSSPALVKGKLRYPPVAPVAPQHPRPARSNLPE”, the entry is “failed”. As for “MPQTLKPDTPAGTPAAGAVAFRRQVLPQDALLVRRVVESTGFFTPEEADVAQELVDEHLMHGAACGYHFVFATEDDDMAGYACYGPTPATEGTYDLYWIAVAPHRQHSGLGRALLAEVVHDVRLTGGRLLFAETSGIRKYAPTRRFYERAGFSAEAVLKAFYRAGDDKIIYRLEVA”, the entry is “not failed”. As for “MPQTSSVFRYPGGKTQLYSFVHHLLKINSITDISLEPFAGGAGIPLKLLIDNRINTVWINDYDKAIYSVWDTILNDPVALISLIESVPFDYHSGHKISPEFSISFWKKQKDIYLNNKNHQHSIELAFSTLFLNRTNTSGIITAGPLGGFKQNRKTQIYARFNKETLINKINLIHSFKSQIKLTRLNTLDMIPKIRNSVDPKNSFIFFDPPYFEQGKELYYSSFNEQGHKELANGILSLKQYHWITTYDTAPQIQEDYTMAKQKYEYSLNYSANNKNRGKTAEFMFASPVTRLSSFEKVDLTPLA”, the protein production entry is recorded as “failed”.
